Results on nine variants are retold here after IntAct's records for PubMed 31015422.

First the molecules themselves.
B1: Tumor necrosis factor alpha-induced protein 3 (Homo sapiens), P21580 (parent)
chain: MAEQVLPQALYLSNMRKAVKIRERTPEDIFKPTNGIIHHFKTMHRYTLEMFRTCQFCPQFREIIHKALIDRNIQATLESQKKLNWCREVRKLVALKTNGDGNCLMHATSQYMWGVQDTDLVLRKALFSTLKETDTRNFKFRWQLESLKSQEFVETGLCYDTRNWNDEWDNLIKMASTDTPMARSGLQYNSLEEIHIFVLCNILRRPIIVISDKMLRSLESGSNFAPLKVGGIYLPLHWPAQECYRYPIVLGYDSHHFVPLVTLKDSGPEIRAVPLVNRDRGRFEDLKVHFLTDPENEMKEKLLKEYLMVIEIPVQGWDHGTTHLINAAKLDEANLPKEINLVDDYFELVQHEYKKWQENSEQGRREGHAQNPMEPSVPQLSLMDVKCETPNCPFFMSVNTQPLCHECSERRQKNQNKLPKLNSKPGPEGLPGMALGASRGEAYEPLAWNPEESTGGPHSAPPTAPSPFLFSETTAMKCRSPGCPFTLNVQHNGFCERCHNARQLHASHAPDHTRHLDPGKCQACLQDVTRTFNGICSTCFKRTTAEASSSLSTSLPPSCHQRSKSDPSRLVRSPSPHSCHRAGNDAPAGCLSQAARTPGDRTGTSKCRKAGCVYFGTPENKGFCTLCFIEYRENKHFAAASGKVSPTASRFQNTIPCLGRECGTLGSTMFEGYCQKCFIEAQNQRFHEAKRTEEQLRSSQRRDVPRTTQSTSRPKCARASCKNILACRSEELCMECQHPNQRMGPGAHRGEPAPEDPPKQRCRAPACDHFGNAKCNGYCNECFQFKQMYG

In the test the parent is B1. Conditions: with ATG16L1, Q676U5-1.
ATG16L1, Q676U5-1, sequence (Q676U5 whole entry): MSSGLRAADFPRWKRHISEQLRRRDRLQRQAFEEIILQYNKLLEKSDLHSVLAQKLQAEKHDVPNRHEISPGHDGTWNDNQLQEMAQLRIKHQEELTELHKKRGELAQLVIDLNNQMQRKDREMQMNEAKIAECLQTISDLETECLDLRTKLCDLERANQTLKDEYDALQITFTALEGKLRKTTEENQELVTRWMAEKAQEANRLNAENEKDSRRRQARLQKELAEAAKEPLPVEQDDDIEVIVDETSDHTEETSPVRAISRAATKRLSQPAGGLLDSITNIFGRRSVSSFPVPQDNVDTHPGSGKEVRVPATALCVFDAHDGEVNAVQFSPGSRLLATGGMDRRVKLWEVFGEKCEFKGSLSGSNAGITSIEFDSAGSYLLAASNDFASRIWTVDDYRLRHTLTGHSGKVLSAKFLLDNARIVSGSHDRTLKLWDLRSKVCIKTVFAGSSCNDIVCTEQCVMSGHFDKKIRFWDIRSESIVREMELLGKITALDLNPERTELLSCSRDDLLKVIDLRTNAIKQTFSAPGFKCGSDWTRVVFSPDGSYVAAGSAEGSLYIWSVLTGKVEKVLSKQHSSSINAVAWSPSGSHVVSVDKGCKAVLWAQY
For the variant F127A;L130A, the “effect of a mutation on the interaction” value was “with no effect”.
In the case of F224A;L227A it was “with no effect”.
Next, A125V: “with no effect”; W168A;L171A: “with no effect”.
Next, Y246A;V249A: “with no effect”.
As for Y233A;L236A, the “effect of a mutation on the interaction” value is “with no effect”.
In the case of F257A;L260A it was “with no effect”; in that of F127C, “with no effect”; in that of Y188A;L191A, “with no effect”.
